Source: doi:10.1101/2025.11.02.686180
Like-named read-outs stand apart in the source and are kept apart here.

Legend:
[1] = biological target: T1, SARS-CoV-2 nucleocapsid protein (NP) (SARS-CoV-2, UniProt P0DTC9 1-419); assay: MST
[2] = biological target: T1, SARS-CoV-2 nucleocapsid protein (NP); assay: MST; remark: listed apart in the source
thrombin (Tb) [3] = biological target: T2, thrombin (Tb) (UniProt P00734;P00734 328-363;364-622); assay: 0.1 ng/mL thrombin
[4] = biological target: T3, Tau441 (longest isoform of tau) (human, UniProt P10636-8 1-441); assay: competition
thrombin (Tb) [5] = biological target: T2, thrombin (Tb); assay: thrombin 0.02-20 pg/mL in water
[6] = biological target: T3, Tau441 (longest isoform of tau); assay: competition; remark: listed apart in the source

B1: Nor-Apt (ssDNA)
DNA: GCTGGATGTCGCTTACGACAATATTCCTTAGGGGCACCGCTACATTGACACATCCAGC
modifications: 3' C3 spacer
- binding result [1]: binds

Binder: CGCTTACGACAATATTCCTTAGGGGCACCGCTACATTGACACATCCAGC (ssDNA, 3' C3 spacer) [N9-Apt]
- binding signal [2]: > 5 fold affinity vs Nor-Apt
- binding result (thrombin (Tb) [3]): no binding
- binding result [4]: no binding

Binder: AGTCCGTGGTAGGGCAGGTTGGGGTGACT (ssDNA, 3' C3 spacer) [thrombin aptamer 29 nt]
- binding result (thrombin (Tb) [5]): binds

Binder: CCTGTCAGGTCTTTGACGAGGCTTTTCTTC (ssDNA, 3' C3 spacer) [Tau aptamer (core)]
- binding result [6]: binds
